{
  "source": "patent US20130224246A1",
  "key": {"[1]": {"molecular_target": "MBP-LEL113-201, maltose-binding protein linked to the CD81 large extracellular loop between residues 113 to 201 (UniProt P60033)", "sequence (P60033 113-201 limits assumed)": "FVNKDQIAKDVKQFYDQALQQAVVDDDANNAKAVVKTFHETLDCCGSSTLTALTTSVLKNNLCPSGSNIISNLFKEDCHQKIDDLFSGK", "experiment": "EIA: E2661-his on coated MBP-LEL113-201, detected with anti-His"}, "[2]": {"molecular_target": "MBP-LEL113-201, maltose-binding protein linked to the CD81 large extracellular loop between residues 113 to 201 (UniProt P60033)", "experiment": "EIA: HCVpp lysate on coated MBP-LEL113-201, detected with H53"}},
  "data": [
    {"substance": "E2661-his M+C459A (from UniProt P27958 384-661)", "values": [
      {"measurement": "fold reduction in LEL binding", "setting": "[1]", "value": 16, "unit": "fold"}
    ]},
    {"substance": "E2661-his C452A/C459A (from UniProt P27958 384-661)", "values": [
      {"measurement": "% of WT CD81-LEL binding activity retained", "setting": "[1]", "value": 40, "unit": "%"},
      {"measurement": "decrease in CD81 binding activity", "setting": "[1]", "value": 60, "unit": "%"}
    ]},
    {"substance": "HCVpp E2 C452A (from UniProt P27958 384-746)", "values": [
      {"measurement": "CD81-binding function (reduced)", "setting": "[2]", "value": 80, "unit": "%"}
    ]},
    {"substance": "HCVpp E2 C459A (from UniProt P27958 384-746)", "values": [
      {"measurement": "CD81-binding function (reduced)", "setting": "[2]", "value": 40, "unit": "%"}
    ]},
    {"substance": "HCVpp E2 C569A (from UniProt P27958 384-746)", "values": [
      {"measurement": "reduction in CD81 binding ability", "setting": "[2]", "value": 70, "unit": "%"}
    ]},
    {"substance": "HCVpp E2 C486A (from UniProt P27958 384-746)", "values": [
      {"measurement": "% of WT LEL-binding activity retained", "setting": "[2]", "value": 80, "unit": "%"}
    ]}
  ]
}
